Earlier results as cited in publication PMC9974451.

Target: Ubc9 (Homo sapiens) (UniProt P63279)
Experiment: differential scanning fluorometry

Ubc9 (Homo sapiens), sequence (P63279 2-158): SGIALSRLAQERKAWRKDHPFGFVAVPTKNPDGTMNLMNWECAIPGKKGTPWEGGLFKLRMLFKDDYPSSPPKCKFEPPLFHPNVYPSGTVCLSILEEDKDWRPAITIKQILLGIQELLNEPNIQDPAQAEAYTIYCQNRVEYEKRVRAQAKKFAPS
importin 13, sequence (O94829 whole entry): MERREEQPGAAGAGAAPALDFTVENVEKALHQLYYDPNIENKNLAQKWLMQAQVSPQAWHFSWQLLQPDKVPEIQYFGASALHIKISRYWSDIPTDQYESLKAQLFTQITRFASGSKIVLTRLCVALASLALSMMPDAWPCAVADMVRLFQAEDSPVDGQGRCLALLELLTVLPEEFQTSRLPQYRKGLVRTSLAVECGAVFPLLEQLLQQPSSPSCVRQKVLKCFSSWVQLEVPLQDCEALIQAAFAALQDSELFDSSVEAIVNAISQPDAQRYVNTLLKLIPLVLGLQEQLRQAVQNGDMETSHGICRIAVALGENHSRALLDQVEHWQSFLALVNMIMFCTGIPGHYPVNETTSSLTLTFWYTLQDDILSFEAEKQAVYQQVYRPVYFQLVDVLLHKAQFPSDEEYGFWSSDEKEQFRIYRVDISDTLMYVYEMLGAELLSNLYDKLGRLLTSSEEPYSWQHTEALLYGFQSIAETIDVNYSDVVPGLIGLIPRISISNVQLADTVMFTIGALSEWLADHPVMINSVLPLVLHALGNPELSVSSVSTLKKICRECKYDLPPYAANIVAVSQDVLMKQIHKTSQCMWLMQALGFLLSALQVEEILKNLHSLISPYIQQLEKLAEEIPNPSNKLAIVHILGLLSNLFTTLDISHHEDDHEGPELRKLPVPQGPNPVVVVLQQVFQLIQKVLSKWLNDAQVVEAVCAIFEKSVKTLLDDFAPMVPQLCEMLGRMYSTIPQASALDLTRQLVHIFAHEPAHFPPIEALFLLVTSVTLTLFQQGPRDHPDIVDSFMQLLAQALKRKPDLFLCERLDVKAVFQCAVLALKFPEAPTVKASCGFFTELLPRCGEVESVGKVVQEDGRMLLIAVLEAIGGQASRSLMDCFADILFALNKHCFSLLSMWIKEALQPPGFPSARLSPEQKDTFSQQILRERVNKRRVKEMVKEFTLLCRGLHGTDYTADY

Kd: 0.37 µM
Substance: importin 13 (from UniProt O94829)
